Results taken from patent publication US20200299408A1 (Genentech, published 2020).

Legend:
[1] = target: T1, single chain human CD3ε-26mer-CD3γ (CD3εγ) (human); assay: Biacore single cycle kinetics; reference of the ratio column
T1 construct: also called human CD3εγ
T1 chain: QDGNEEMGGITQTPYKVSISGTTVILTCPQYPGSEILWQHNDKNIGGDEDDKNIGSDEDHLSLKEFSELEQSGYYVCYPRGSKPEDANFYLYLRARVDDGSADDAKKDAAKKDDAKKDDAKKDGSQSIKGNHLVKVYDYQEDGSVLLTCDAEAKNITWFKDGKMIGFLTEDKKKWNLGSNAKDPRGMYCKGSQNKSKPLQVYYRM
From the text: (§1) In addition, position 95 in HVR-H3 was also mutated to serine, threonine, or glutamate. Variants with these single point mutations were expressed as Fabs in HEK293 cells and initially screened with a single cycle kinetics method on a Biacore T100. Selected variants were also scaled up and purified for a conventional multi-cycle kinetics method. For single cycle kinetics, Biacore Series S CM5 sensor chips were immobilized with anti-human Fab antibodies (Human Fab capture kit, GE Healthcare). […] For conventional multi-cycle kinetics, human CD3εγ, cyno CD3εγ, or a 27-mer peptide were immobilized on Biacore Series S CM5 sensor chip using the amine coupling kit from Biacore. Serial 3-fold dilutions of each Fab variant were injected at a flow rate of 30 μl/min. Each sample was analyzed with a protocol of 3-minute association and 3-minute dissociation. In both methods, the Biacore chips were regenerated using 10 mM Glycine (pH 1.7). Binding response was corrected by blank subtraction and a 1:1Languir model of simultaneous fitting of kₒₙ and koff was used for kinetics analysis.

cyCD3εγ = target: T2, cyCD3εγ (cynomolgus monkey); assay: monovalent binding affinity, method not stated on the sheet
T2 chain 1: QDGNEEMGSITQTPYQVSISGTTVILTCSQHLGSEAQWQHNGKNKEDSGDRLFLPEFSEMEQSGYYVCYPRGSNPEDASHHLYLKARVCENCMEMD
T2 chain 2: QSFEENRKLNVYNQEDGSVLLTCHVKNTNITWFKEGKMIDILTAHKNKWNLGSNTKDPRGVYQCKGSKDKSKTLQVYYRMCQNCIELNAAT

[2] = target: T1, single chain human CD3ε-26mer-CD3γ …; assay: monovalent binding affinity, method not stated on the sheet; column huCD3εγ
[3] = target: T1, single chain human CD3ε-26mer-CD3γ …; assay: Biacore single cycle kinetics: Fab captured by anti-human Fab, human CD3εγ injected (3-250 nM)
From the text: as §1

- ratio (fold) [1]: 1 fold
- Kd (cyCD3εγ): 700 pM
- Kd [2]: 500 pM
- Kd [3]: 3400 pM
- koff [3]: 0.00108 s⁻¹
- kon [3]: 320000 M⁻¹ s⁻¹
B1: hu38E4.v1 Fab (Fab, V domains shown)
VH: EVQLVQSGAEVKKPGASVKVSCKASGFTFTSYYIHWVRQAPGQGLEWIGWIYPENDNTKYNEKFKDRVTITADTSTSTAYLELSSLRSEDTAVYYCARDGYSRYYFDYWGQGTLVTVSS
VL: DIVMTQSPDSLAVSLGERATINCKSSQSLLNSRTRKNYLAWYQQKPGQSPKLLIYWTSTRKSGVPDRFSGSGSGTDFTLTISSLQAEDVAVYYCKQSFILRTFGQGTKVEIK
notes: Humanized anti-CD3 Fab; Point mutants of it were expressed as Fabs in HEK293 cells
